Consider five molecules from patent US7741066B2, “Phosphorylated p68 RNA helicase as a marker for cancer and cancer metastasis” (priority 2005, dated 2010).

Series [1] has as its system p68 RNA helicase tyrosine phosphorylation. Briefly: Tyrosyl phosphorylation of p68 RNA helicase in cancer cells after treatment (immunoprecipitation with PAbp68, Western Blot with p-tyr-100). The series is classed as cell-based, human.
Description: After the tissue samples were homogenized, the protein extracts were made from the homogenized sample. The tissue was screened for phosphorylated p68 RNA helicase in two steps. In the first step, the polyclonal antibody PAbp68 was used to isolate p68 RNA helicase from the extracts. In the second step, the antibody p-tyr-100 was used to detect the phosphorylated p68 RNA helicase from the total isolated p68 RNA helicase by the Western Blot. The intensity of the Western Blot signal by the antibody p-tyr-100, in the second step, corresponds to the level of phosphorylated p68 RNA helicase in the sample.
The Western Blots were carried out using antibody p68-rgg (top panel in FIG. 3A-3D) and antibody p-tyr-100 (bottom panel in FIGS. 3A-3D). The p68 RNA helicase was immunoprecipitated by antibody PAbp68.
Series [2] concerns p68 RNA helicase threonine phosphorylation. Briefly: Threonine phosphorylation of p68 RNA helicase in cancer cells after treatment (immunoprecipitation, Western Blot with 14B3). The series is classed as cell-based, human. The note with it: for threonine phosphorylation of p68 RNA helicase upon treatment: six different cancer cell lines, Western Blot 14B3; for threonine phosphorylation of p68 RNA helicase upon longer treatment: 30 minutes treatment, data not shown. The procedure: The presence of phosphorylated p68 RNA helicase in cultured cells or tissue samples was examined using immunoprecipitation followed by Western Blots. Immunoblotting also was also performed with a monoclonal antibody against p68 RNA helicase to show the equal amounts or levels of p68 (phosphorylated and unphosphorylated) loaded in the western blotting. Such Western Blots include the use of antibodies to phosphorylated p68 RNA helicase and sodium dodecyl sulphate polyacrylamide gel electrophoresis (SDS-PAGE). Immunoblotting also was performed with a monoclonal antibody against p68 RNA helicase to show the presence of a positive control protein in tumor and normal samples and to indicate that there was no evidence of protein degradation in any of the tissue samples.
A polyacrylamide gel system was employed for separation of proteins. The cell nuclear extracts (80 μl) were diluted to 200 μl with RIPA buffer (160 mM NaCl, 20 mM Tris-HCl, pH 7.5, 1 mM EDTA, 1 mM EGTA, 1 mM DTT, 0.1% Triton X-100, 1% sodium deoxycholate, 0.1% SDS, 1 mM sodium vanadate, and 1 mM PMSF). The antibody PAbp68 then was added to the mixture. The solution subsequently was incubated at 4° C. for 4 hours. Protein A agarose bead slurry (40 μl) then was added and the mixture underwent rotation. The beads were recovered and washed with 5×600 μl RIPA buffer with 0.08% SDS. The precipitated proteins were analyzed by SDS-PAGE followed by Western Blot.
The Western Blot analysis was performed with a commercially available ECL Western Blot and detection kit (Amersham Biosciences). The supernatant from the culture medium of hybridoma cells P68-rgg were used in the blotting experiments at a 5:1 dilution. The polyclonal antibody PAbp68 was used in 1:3000 dilution. The antibodies, PY100 and 14B3 were used with 1:2000 dilution.
The phosphorylation of p68 RNA helicase was investigated using HeLA S3, A549, HEL299, CCD-112CoN, HepG2, and MCF-7 cells. The HeLa S3 and A549 cells were grown in Ham's F12K medium supplemented with 10% fetal bovine serum. The HEL299, CCD-112CoN, HepG2, and MCF-7 cells were maintained in minimum essential medium supplemented with 10% fetal bovine serum. The culture medium contained 2 mM L-glutamine and Earle's BSS adjusted to contain 1.5 g/l of sodium bicarbonate, 0.1 mM of non-essential amino acids, and 1.0 mM sodium pyruvate. The Caco-2 cells were grown in a similar medium condition to that of HEL299 cells but supplemented with 20% fetal bovine serum. The RPMI 1788 and K562 cells were grown in Iscove's modified Dulbecco's medium supplemented with 10% fetal bovine serum. The HEK293 and Hs 578Bst cells were grown in modified Dulbecco's medium containing 10% fetal bovine serum. All cell culture medium contained penicillin (100 U/ml) and streptomycin (100 μg/ml). The cells were grown to 90% confluency prior to performing any experiment.
The phosphorylations of p68 RNA helicase responded differently to different anticancer treatments.
FIGS. 2A and 2B show Western Blots of immunoprecipitated cellular p68 RNA helicase from different cancer cells (indicated). The immuno-blots were carried out using antibody p68-rgg (FIG. 2, top panel in A and B), antibody p-tyr-100 (middle panel in A and B), and antibody 14B3 (FIG. 2, bottom panel in A and B). The + and − represent with or without TNF-α or TRAIL treatments. Tyrosine dephosphorylation and threonine phosphorylation of p68 RNA helicase was present in cancer cells upon the panel (A) TNF-α or panel (B) TRAIL treatments.

[3] abbreviates: six different cancer cell lines (A549, Caco-2, HepG2, K562, MCF-7, HeLa S3), Western Blot p-tyr-100.

Take `Cc1ccc(NC(=O)c2ccc(CN3CCN(C)CC3)cc2)cc1Nc1nccc(-c2cccnc2)n1` [STI-571, reference compound]: the “tyrosine phosphorylation of p68 RNA helicase upon treatment” value (from here on “tyrosine phosphorylation”) in series [1] (MCF-7 breast cancer cells) is listed as “decreases in the tyrosine phosphorylation level rather than complete dephosphorylation”.

On to `CC(=O)O[C@H]1C(=O)[C@@]2(C)[C@H]([C@H](OC(=O)c3ccccc3)[C@]3(O)C[C@H](OC(=O)[C@H](O)[C@@H](NC(=O)c4ccccc4)c4ccccc4)C(C)=C1C3(C)C)[C@]1(OC(C)=O)CO[C@@H]1C[C@@H]2O` [TAXOL®, reference compound], for which the “tyrosine phosphorylation” value in series [1] (setting [3]) is reported as “tyrosyl dephosphorylation was not observed”. Further, in series [2], the “threonine phosphorylation of p68 RNA helicase upon treatment” value was “Threonine phosphorylation was not detected”.

On to `COc1cc([C@@H]2c3cc4c(cc3[C@@H](O[C@@H]3O[C@@H]5CO[C@@H](C)O[C@H]5[C@H](O)[C@H]3O)[C@H]3COC(=O)[C@H]23)OCO4)cc(OC)c1O` [etoposide, reference compound], for which the “tyrosine phosphorylation” value in series [1] (setting [3]) is given as “tyrosyl dephosphorylation was not observed”. For the same molecule, the “threonine phosphorylation of p68 RNA helicase upon treatment” value in series [2] is listed as “Threonine phosphorylation was not detected”.

On to TNF-α, for which, in series [1] (HeLa cells), the “tyrosyl phosphorylation of p68 RNA helicase upon treatment” value is “could be dephosphorylated”. Besides, the “tyrosine phosphorylation” value in series [1] (setting [3]) is “led to the dephosphorylation of p68 at tyrosine residue(s)”. For the same molecule, in series [2], the “threonine phosphorylation of p68 RNA helicase upon longer treatment” value is recorded as “quickly dephosphorylated again” and the “threonine phosphorylation of p68 RNA helicase upon treatment” value is on record as “resulted in phosphorylation of p68 at threonine”.

With “TRAIL: TNF Related Apoptosis-Inducer Ligand”, in series [1] (setting [3]), the “tyrosine phosphorylation” value is “led to the dephosphorylation of p68 at tyrosine residue(s)”. In series [2], the “threonine phosphorylation of p68 RNA helicase upon longer treatment” value was “quickly dephosphorylated again” and the “threonine phosphorylation of p68 RNA helicase upon treatment” value is listed as “resulted in phosphorylation of p68 at threonine”.
